US20250230255A1 (BIOTHEUS, published 2025)
Where two headings read alike, the source gives them in different places. One block for each binder: values may come before it.

Tests used:
[1] = biological target: PD-1 (of the Promega PD-1/PD-L1 blockade bioassay) (UniProt Q15116 25-288, limits assumed); test: cell-based or functional assay
cynomolgus PD-1 on cells = biological target: T1, cynomolgus PD-1 on cells (cynomolgus, UniProt Q15116 25-288 (human entry)); test: flow cytometry on CHOS cells overexpressing cynomolgus PD1, median fluorescence intensity PE-A
T1 construct: also called CHO-cynoPD1 cell
T1 chain: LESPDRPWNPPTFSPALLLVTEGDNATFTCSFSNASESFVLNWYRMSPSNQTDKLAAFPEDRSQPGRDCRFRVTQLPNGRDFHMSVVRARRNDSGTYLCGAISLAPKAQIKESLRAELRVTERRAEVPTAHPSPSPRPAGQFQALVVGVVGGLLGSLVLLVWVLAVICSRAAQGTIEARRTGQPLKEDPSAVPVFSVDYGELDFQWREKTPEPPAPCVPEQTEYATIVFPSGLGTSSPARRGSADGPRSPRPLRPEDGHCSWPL

human PD-1 on cells = biological target: T2, human PD-1 on cells (human, UniProt Q15116 25-288); test: flow cytometry on CHOS cells overexpressing human PD1, median fluorescence intensity PE-A
T2 construct: also called CHO-hPD1 cell

human CD39 on cells [2] = biological target: T3, human CD39 on cells (human, UniProt P49961 1-510); test: cell-based or functional assay
T3 sequence: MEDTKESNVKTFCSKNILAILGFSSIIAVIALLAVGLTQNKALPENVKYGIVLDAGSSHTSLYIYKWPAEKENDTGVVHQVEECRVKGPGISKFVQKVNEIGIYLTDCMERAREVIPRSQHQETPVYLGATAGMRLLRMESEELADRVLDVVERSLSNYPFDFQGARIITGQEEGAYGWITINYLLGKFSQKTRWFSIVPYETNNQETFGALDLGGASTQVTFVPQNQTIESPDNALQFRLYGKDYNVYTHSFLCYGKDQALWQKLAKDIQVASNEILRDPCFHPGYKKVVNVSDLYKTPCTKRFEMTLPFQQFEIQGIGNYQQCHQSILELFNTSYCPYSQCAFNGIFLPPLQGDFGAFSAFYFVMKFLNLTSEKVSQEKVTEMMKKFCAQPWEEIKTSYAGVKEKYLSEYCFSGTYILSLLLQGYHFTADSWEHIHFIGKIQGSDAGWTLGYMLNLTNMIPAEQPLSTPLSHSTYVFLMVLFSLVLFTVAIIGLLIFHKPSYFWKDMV

human CD39 on cells [3] = biological target: T3, human CD39 on cells; test: cell-based or functional assay; remark: listed apart in the source
[4] = biological target: T4, human CD39 (recombinant protein in solution) (human, UniProt P49961 38-478, limits assumed); test: cell-based or functional assay
T4 sequence: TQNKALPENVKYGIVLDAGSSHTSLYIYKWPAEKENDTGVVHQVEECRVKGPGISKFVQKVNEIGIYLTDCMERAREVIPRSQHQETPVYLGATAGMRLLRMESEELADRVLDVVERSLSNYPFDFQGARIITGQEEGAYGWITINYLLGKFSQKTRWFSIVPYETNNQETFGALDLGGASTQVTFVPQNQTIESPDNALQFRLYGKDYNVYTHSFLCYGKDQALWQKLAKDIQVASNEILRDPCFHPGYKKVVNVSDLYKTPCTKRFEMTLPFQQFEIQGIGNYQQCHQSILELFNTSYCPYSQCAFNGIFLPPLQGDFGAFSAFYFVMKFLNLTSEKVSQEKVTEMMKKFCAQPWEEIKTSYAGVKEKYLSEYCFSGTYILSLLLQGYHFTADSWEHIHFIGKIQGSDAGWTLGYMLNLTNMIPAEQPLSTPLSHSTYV

cynomolgus CD39 on cells = biological target: T5, cynomolgus CD39 on cells (cynomolgus, UniProt P49961 6-510 (human entry)); test: flow cytometry on CHO-cyCD39 cells, MFI titration
T5 construct: also called cyCD39; CHO-cyCD39 cells
T5 chain: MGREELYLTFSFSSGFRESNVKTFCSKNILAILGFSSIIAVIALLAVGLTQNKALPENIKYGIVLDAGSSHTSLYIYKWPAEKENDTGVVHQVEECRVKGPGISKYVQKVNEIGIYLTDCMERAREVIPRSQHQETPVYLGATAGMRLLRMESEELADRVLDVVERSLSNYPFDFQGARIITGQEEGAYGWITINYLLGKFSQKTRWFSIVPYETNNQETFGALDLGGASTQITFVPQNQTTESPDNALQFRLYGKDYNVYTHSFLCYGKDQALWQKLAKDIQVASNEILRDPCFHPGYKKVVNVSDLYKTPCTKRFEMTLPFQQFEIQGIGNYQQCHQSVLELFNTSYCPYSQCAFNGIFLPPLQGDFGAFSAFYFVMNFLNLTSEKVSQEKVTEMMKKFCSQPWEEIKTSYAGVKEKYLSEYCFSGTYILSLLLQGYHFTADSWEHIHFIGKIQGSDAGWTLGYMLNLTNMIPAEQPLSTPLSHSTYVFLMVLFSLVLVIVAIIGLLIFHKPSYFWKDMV

human CD39 on cells [5] = biological target: T3, human CD39 on cells; test: cell-based or functional assay; remark: listed apart in the source
human CD39 on cells [6] = biological target: T3, human CD39 on cells; test: flow cytometry on CHO-hCD39 cells, MFI titration
[7] = biological target: T4, human CD39 (recombinant protein in …); test: BLI (ForteBio), method of Example 3, human CD39 in solution
Method: (§1) ForteBio affinity test was conducted according to the existing methods (Estep, P et al., High throughput solution based measurement of antibody-antigen affinity and affinity binding. MAbs, 2013.5 (2): p. 270-8). In short, the sensor is balanced offline in the analysis buffer for 30 min, and then tested online for 60 s to establish baseline. After that, the AHQ sensor is online loaded with the above-obtained purified antibody, and put into 100 nM human CD39 (SEQ ID NO: 28) for 5 min, and then transferred the sensor to PBS for dissociation for 5 min. A 1:1 binding model is used for the dynamic analysis.
The humanized sequences are subjected to the humanized antibody vector construction, expression and purification according to the method described in Example 2. […] The purified humanized antibodies were subjected to the affinity test at protein level according to the method described in Example 3.

human CD39 on cells [8] = biological target: T3, human CD39 on cells; test: cell-based or functional assay; remark: listed apart in the source
[9] = biological target: T4, human CD39 (recombinant protein in …); test: cell-based or functional assay; remark: listed apart in the source
[10] = biological target: T4, human CD39 (recombinant protein in …); test: BLI (ForteBio), antibody loaded on AHQ sensor, 100 nM human CD39 in solution, 1:1 model
Method: as §1

[11] = biological target: T4, human CD39 (recombinant protein in …); test: BLI (ForteBio), method of Example 3, human CD39 in solution; remark: listed apart in the source
Method: as §1

Sequence of PD-1 (of the Promega PD-1/PD-L1 blockade bioassay) (Q15116 25-288 limits assumed): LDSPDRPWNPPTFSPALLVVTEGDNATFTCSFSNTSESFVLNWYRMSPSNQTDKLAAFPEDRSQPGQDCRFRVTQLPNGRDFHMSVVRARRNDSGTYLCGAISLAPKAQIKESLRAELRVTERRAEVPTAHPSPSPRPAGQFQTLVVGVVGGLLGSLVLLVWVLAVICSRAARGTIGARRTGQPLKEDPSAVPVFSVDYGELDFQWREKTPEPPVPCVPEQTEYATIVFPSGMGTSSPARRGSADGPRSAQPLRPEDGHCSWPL
T2 sequence (Q15116 25-288 limits assumed): as above

EC50 (read off the curve) [1]: ~0.2 nM
EC50 (read off the curve) (cynomolgus PD-1 on cells): ~10 nM
EC50 (read off the curve) (human PD-1 on cells): ~10 nM
B1: anti-PD1 antibody ADI-54872 (antibody, V domains shown)
VH: EVQLVQSGAEVKKPGASVKVSCKASGYTFTEYYIYWVRQAPGQGLEWIGGINPSNGGTNFNEKFKPRVTMTVDTSTSTAYMELSSLRSEDTAVYYCTVRDFRFDKGFKYWGQGTLVTVSS
VL: DIVLTQSPATLSLSPGERATLSCRASKSVSTSGLNYVHWYQRKPGQAPRLLIYLGSYLDSGVPARFSGSGSGTDFTLTISSLEPEDFAVYYCQQSWELPLTFGGGTKVEIK
notes: also called anti-PD-1 monoclonal antibody molecule

EC50 (read off the curve) [1]: ~0.3 nM
EC50 (read off the curve) (cynomolgus PD-1 on cells): ~20 nM
EC50 (read off the curve) (human PD-1 on cells): ~10 nM
B2: anti-PD1×CD39 antibody (bispecific antibody, human IgG1, kappa)
heavy: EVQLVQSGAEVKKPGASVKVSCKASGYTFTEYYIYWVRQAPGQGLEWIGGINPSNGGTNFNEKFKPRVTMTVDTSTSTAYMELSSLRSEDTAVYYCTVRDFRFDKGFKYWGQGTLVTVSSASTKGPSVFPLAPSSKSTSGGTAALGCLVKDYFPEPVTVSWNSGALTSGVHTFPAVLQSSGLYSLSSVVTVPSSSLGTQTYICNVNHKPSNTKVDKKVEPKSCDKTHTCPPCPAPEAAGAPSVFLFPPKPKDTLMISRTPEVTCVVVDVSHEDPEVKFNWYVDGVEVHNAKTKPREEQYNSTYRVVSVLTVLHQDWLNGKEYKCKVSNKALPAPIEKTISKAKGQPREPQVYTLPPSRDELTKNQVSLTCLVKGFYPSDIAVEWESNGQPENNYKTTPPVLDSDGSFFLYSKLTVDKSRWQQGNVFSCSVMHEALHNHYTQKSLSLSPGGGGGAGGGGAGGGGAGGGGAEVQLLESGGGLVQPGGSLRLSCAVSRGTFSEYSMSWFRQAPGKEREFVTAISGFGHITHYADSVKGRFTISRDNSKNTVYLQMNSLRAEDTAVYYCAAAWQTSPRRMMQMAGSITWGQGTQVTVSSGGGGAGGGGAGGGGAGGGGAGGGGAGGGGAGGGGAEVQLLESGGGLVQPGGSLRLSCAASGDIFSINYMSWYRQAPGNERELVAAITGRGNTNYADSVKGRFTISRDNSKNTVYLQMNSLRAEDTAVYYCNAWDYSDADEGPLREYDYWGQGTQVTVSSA
light: DIVLTQSPATLSLSPGERATLSCRASKSVSTSGLNYVHWYQRKPGQAPRLLIYLGSYLDSGVPARFSGSGSGTDFTLTISSLEPEDFAVYYCQQSWELPLTFGGGTKVEIKRTVAAPSVFIFPPSDEQLKSGTASVVCLLNNFYPREAKVQWKVDNALQSGNSQESVTEQDSKDSTYSLSSTLTLSKADYEKHKVYACEVTHQGLSSPVTKSFNRGEC
notes: also called Anti-PD1xCD39 antibody

EC50 of blocking CD39 enzyme activity of human CD39 overexpression cells (human CD39 on cells [2]): 1.99 nM
EC50 of blocking CD39 enzyme activity in PBMC system (human CD39 on cells [3]): 0.338 nM
EC50 of blocking enzyme activity of soluble CD39 [4]: 3.09 nM
EC50 (cynomolgus CD39 on cells): 5.53 nM
EC50 of blocking CD39 enzyme activity in human CD39 overexpression cells (ATP, CellTiter-Glo) (human CD39 on cells [5]): 10.1 nM
EC50 (human CD39 on cells [6]): 4.76 nM
Kd [7]: 1.5 nM
koff [7]: 0.000371 s⁻¹
kon [7]: 245000 M⁻¹ s⁻¹
EC50 of blocking CD39 enzyme activity in PBMC system (human CD39 on cells [8]): 10.1 nM
EC50 of blocking enzyme activity of soluble human CD39 [9]: 8.89 nM
Kd [10]: 0.855 nM
koff [10]: 0.0002 s⁻¹
kon [10]: 285000 M⁻¹ s⁻¹
B3: I394 BMK (antibody, human IgG1, kappa, V domains shown)
VH: EVQLQQSGPELVKPGASVKMSCKASGYTFTDYNMHWVKQSHGRTLEWIGYIVPLNGGSTFNQKFKGRATLTVNTSSRTAYMELRSLTSEDSAAYYCARGGTRFAYWGQGTLVTVSA
VL: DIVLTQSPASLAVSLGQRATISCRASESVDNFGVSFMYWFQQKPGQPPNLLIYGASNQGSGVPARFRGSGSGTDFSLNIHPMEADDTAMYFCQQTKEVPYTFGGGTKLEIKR
notes: also called control antibody

Kd [11]: 0.351 nM
koff [11]: 0.000106 s⁻¹
kon [11]: 303000 M⁻¹ s⁻¹
B4: Bi307/308 (bispecific antibody, human IgG1, kappa, L234A L235A)
heavy: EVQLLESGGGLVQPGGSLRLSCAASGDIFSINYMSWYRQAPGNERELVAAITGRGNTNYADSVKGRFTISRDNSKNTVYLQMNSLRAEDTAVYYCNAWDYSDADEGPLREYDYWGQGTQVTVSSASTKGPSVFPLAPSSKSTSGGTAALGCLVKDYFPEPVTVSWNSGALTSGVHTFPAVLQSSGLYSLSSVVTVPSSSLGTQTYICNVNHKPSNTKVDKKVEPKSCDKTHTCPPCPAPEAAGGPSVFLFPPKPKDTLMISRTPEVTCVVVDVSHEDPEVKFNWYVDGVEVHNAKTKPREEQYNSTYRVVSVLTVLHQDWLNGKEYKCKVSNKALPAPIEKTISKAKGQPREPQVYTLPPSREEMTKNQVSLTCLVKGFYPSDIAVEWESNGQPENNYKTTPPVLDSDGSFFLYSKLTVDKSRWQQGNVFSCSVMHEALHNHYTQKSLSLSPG
light: EVQLLESGGGLVQPGGSLRLSCAVSRGTFSEYSMSWFRQAPGKEREFVTAISGFGHITHYADSVKGRFTISRDNSKNTVYLQMNSLRAEDTAVYYCAAAWQTSPRRMMQMAGSITWGQGTQVTVSSRTVAAPSVFIFPPSDEQLKSGTASVVCLLNNFYPREAKVQWKVDNALQSGNSQESVTEQDSKDSTYSLSSTLTLSKADYEKHKVYACEVTHQGLSSPVTKSFNRGEC
notes: also called bi-epitopic anti-CD39 antibody resembling IgG structure
